Test results from patent US20240059741A1, “COMPOSITION FOR PREVENTION OR TREATMENT OF SARS-COV-2 INFECTION” (priority 2020, published 2024).
Where a SMILES comes first, the peptide text is derived from it. Bridges are numbered along the chain shown (N, C = ends). Where no end group is shown, it is not given here.

Tests used:
[1] = target: T1, interaction of SARS-CoV-2 S1 and hACE2 in hACE2-overexpressed HEK293 cells (Severe acute respiratory syndrome coronavirus 2, UniProt P0DTC2); format: cell-based, human
T1 construct: S1 protein-His Tag (AcroBiosystems, S1N-C52H3-100UG, USA); AcroBiosystems (S1 protein) 145033; S1N-C52H3-100UG; host or cells: HEK293

S1 subunit of SARS-CoV-2 = target: T2, S1 subunit of SARS-CoV-2 (Severe acute respiratory syndrome coronavirus 2, UniProt P0DTC2); format: binding
T2 construct: ACE2 and S1 subunits of SARS-CoV-2; His Tag; purchased AcroBiosystems S1N-C52H3-100UG

Molecule	effect on membrane localization of S1 [1]	effect on S1-ACE2 interaction [1]	dependent binding to S1 (S1 subunit of SARS-CoV-2)
CC[C@H](C)[C@H](NC(=O)[C@H](CCCNC(=N)N)NC(=O)[C@@H]1CSSC[C@H](NC(=O)CNC(=O)CNC(=O)[C@@H]2CCCN2C(=O)[C@H](CO)NC(=O)[C@H](C)NC(=O)[C@H](CC(C)C)NC(=O)[C@H](CO)NC(=O)[C@H](CO)NC(=O)[C@H](CCCCN)NC(=O)[C@H](Cc2ccc(O)cc2)NC(=O)[C@H](Cc2ccccc2)NC(=O)[C@H](CC(C)C)NC(=O)[C@H](CC(=O)O)NC(=O)[C@H](CCC(=O)O)NC(=O)[C@@H]2CCCCNC(=O)C[C@H](NC(=O)[C@H](CCCCN)NC(=O)[C@H](CC(=O)O)NC(=O)[C@H](CC(C)C)NC(=O)[C@H](Cc3ccccc3)NC(=O)[C@H](CC(N)=O)NC(=O)[C@H](C)NC(=O)[C@H](C)NC(=O)[C@H](CCC(N)=O)NC(=O)[C@@H](N)CC(C)C)C(=O)N[C@@H](CC(N)=O)C(=O)N[C@@H](CC(=O)O)C(=O)N[C@@H](CCC(=O)O)C(=O)N2)C(=O)N[C@@H](CC(C)C)C(=O)NCC(=O)N[C@@H](CCCCN)C(=O)NCC(=O)N[C@@H](CC(=O)O)C(=O)N1)C(=O)N[C@@H](CC(C)C)C(=O)O [CSNP2] (H-LQAANFLDKDNDEKEDLFYKSSLASPGGCLGKGDCRIL-OH; lactam 10-14; disulfide 29-35; N-terminus and C-terminus assumed)	completely blocked the membrane localization of S1		
CSNP3 (ENAINFLDKDNHEKEDLFYQ; not fully specified)		completely eliminated the S1-ACE2 interaction	no dependent binding
